pIC50: −log10 of the molar value.
Legend:
[1] = target: eIF2B(αβδγε)2 decamer (human) (UniProt Q14232)
[2] = target: eIF2B(αβδγε)2 decamer (human) (UniProt Q14232); assay: fluorescence polarisation; displacement of FAM-ISRIB (2.5 nM) from 100 nM eIF2B(αβδγε)2 by titrated eIF2, eIF2-P, eIF2α or eIF2α-P; 30 min at 22°C; 20 mM HEPES-KOH pH 7.5, 100 mM KCl, 5 mM MgCl2, 1 mM TCEP; also timecourses with PKR or λ phosphatase at 5.6 μM eIF2α/eIF2α-P

| t1/2 of BODIPY-FL-GDP exchange on eIF2 by 10 nM eIF2B(αβδγε)2 (GEF activity) at 0, 50, 100 and 250 nM eIF2-P (control 1.6 min) [1] [min] | pIC50 [2] | t1/2 of BODIPY-FL-GDP exchange on eIF2 by 10 nM eIF2B(αβδγε)2 (GEF activity) at 0, 0.2, 1 and 2 μM eIF2α-P (control 2.4 min) [1] [min] | Substance |
| --- | --- | --- | --- |
| 7.2 | 6.68 |  | phosphorylated heterotrimeric human eIF2 (eIF2-P) (from UniProt P05198 1-315; P20042 1-333; P41091 1-472) (complex) |
|  | 5.40 | 6.7 | human phosphorylated eIF2α (eIF2α-P) (from UniProt P05198 1-315) (natural protein) |

From publication PMC7990499, “eIF2B conformation and assembly state regulate the integrated stress response” (eLife, 2021)
